Measured values: patent US10500249B2, “Compositions and methods for preventing or treating diseases, conditions, or processes characterized by aberrant fibroblast proliferation and extracellular matrix deposition” (MOERAE MATRIX, INC., priority 2014, dated 2019)

What was measured:
Assay in all cases: Kinase Profiling Assay
Conditions in all cases: 100 μM
GSK3β (h) = target: T1, GSK3β (h) (Homo sapiens, UniProt P49841); assay type: biochemical
T1 construct: purchased Millipore
Summary of the method: (§1)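 Radiometric filter-binding format: cationic substrate takes up labeled phosphate from ATP unless the inhibitor peptide blocks the kinase. Substrate bound to an anionic filter, scintillation-counted, normalized to 100% activity control. Duplicates; part of a 266-kinase selectivity panel for MK2 peptides.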

TAO1 (h) = target: T2, TAO1 (h) (Homo sapiens, UniProt Q7L7X3); assay type: biochemical
T2 sequence (Q7L7X3 1-1001): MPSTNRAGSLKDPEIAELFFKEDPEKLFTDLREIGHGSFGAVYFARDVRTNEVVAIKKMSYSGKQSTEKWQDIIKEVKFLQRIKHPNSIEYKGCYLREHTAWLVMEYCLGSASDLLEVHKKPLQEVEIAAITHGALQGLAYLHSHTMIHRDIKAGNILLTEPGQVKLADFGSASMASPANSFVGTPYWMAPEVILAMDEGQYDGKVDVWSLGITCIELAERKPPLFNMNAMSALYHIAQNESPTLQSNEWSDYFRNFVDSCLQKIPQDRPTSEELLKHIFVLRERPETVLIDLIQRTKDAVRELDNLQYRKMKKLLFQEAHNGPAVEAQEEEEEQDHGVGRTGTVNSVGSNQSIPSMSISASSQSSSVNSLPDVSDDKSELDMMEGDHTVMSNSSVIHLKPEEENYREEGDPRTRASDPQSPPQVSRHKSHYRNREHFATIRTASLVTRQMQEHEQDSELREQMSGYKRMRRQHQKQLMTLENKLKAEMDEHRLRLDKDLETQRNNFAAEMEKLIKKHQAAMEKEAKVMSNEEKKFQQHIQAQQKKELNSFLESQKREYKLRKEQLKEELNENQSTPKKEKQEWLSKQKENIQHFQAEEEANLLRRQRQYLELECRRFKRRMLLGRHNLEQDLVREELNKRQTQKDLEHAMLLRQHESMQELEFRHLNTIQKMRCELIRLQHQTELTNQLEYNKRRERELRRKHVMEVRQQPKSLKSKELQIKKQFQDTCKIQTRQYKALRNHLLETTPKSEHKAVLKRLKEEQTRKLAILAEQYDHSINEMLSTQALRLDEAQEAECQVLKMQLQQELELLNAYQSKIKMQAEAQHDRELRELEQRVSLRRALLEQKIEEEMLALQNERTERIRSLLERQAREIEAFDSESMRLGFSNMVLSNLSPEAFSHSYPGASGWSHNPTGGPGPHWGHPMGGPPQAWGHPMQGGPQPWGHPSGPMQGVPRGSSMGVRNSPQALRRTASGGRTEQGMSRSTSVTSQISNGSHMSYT
Summary of the method: as §1

Mer (h) = target: T3, Mer (h) (Homo sapiens, UniProt Q12866); assay type: biochemical
T3 sequence (Q12866 21-999): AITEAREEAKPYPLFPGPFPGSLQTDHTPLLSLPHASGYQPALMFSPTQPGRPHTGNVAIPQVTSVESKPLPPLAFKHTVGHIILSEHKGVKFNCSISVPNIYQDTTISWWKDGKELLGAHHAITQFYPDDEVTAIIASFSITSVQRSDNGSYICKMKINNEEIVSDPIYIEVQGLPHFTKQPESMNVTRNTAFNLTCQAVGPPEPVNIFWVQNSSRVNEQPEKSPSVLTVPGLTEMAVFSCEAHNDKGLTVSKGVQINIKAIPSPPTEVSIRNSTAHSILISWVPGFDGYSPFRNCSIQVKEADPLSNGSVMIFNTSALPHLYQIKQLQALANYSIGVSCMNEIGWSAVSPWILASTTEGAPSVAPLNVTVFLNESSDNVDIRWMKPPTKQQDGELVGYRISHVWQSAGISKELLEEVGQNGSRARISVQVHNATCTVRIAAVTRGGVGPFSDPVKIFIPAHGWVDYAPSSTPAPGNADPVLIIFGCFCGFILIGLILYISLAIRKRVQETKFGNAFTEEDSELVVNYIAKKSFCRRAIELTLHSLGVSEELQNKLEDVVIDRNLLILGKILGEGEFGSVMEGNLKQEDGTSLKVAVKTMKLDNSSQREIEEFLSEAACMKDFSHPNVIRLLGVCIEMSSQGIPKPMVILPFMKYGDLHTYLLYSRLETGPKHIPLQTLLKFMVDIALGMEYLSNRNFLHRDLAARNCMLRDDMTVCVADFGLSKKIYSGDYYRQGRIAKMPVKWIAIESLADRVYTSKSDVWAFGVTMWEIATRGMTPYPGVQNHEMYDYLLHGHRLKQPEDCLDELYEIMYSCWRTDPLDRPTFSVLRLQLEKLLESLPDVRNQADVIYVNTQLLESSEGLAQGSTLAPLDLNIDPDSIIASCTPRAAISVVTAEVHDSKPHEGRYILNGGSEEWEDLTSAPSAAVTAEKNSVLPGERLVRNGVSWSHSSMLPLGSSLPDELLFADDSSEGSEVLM
Summary of the method: as §1

EGFR (h) = target: T4, EGFR (h) (Homo sapiens, UniProt P00533); assay type: biochemical
T4 construct: purchased Millipore
Summary of the method: as §1

cKit(V654A) (h) = target: T5, cKit(V654A) (h) (Homo sapiens, UniProt P10721, V654A); assay type: biochemical
T5 construct: purchased Millipore
Summary of the method: as §1

MSK2 (h) = target: T6, MSK2 (h) (Homo sapiens, UniProt O75676); assay type: biochemical
T6 construct: purchased Millipore
T6 sequence (O75676 whole entry): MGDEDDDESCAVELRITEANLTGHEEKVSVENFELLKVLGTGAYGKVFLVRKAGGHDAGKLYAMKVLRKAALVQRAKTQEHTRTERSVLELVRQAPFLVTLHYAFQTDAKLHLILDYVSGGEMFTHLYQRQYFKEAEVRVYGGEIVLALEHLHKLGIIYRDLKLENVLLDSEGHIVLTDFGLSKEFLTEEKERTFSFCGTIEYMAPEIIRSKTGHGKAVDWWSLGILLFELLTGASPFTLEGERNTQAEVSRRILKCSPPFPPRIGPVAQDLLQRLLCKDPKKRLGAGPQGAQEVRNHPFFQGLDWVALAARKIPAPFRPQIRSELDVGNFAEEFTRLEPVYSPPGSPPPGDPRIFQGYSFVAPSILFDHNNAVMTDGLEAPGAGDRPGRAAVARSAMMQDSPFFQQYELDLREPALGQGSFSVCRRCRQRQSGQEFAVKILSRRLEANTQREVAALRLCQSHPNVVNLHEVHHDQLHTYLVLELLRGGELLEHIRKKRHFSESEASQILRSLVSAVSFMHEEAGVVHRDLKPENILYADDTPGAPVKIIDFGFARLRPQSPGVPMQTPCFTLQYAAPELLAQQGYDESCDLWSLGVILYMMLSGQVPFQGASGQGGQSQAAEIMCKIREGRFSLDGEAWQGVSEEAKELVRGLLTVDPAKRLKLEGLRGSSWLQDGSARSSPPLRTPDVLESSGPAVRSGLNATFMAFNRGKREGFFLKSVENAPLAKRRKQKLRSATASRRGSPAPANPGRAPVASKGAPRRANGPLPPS
Summary of the method: as §1

CaMKIIβ (h) = target: T7, CaMKIIβ (h) (Homo sapiens, UniProt Q13554); assay type: biochemical
T7 construct: purchased Millipore
T7 sequence (Q13554 whole entry): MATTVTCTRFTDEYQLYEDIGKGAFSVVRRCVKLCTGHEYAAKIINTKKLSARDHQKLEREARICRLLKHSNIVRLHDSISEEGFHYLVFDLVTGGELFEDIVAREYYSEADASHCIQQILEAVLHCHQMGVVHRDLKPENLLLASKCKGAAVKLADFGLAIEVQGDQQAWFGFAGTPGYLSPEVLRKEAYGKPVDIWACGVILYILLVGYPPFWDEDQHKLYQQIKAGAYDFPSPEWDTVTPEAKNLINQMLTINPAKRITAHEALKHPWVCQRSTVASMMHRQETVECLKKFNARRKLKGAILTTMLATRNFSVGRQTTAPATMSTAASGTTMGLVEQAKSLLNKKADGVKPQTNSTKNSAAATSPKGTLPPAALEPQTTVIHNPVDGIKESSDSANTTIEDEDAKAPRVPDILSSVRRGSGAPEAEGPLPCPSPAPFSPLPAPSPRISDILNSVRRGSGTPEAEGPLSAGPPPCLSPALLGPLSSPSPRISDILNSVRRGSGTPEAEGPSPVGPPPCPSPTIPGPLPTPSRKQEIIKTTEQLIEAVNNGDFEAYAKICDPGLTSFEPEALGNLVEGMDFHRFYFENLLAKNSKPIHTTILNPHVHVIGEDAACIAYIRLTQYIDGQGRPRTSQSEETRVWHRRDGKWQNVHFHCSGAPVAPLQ
Summary of the method: as §1

SGK (h) = assay type: biochemical, human
Protocol: (§2) Every kinase activity measurement was conducted in duplicate.
(§3) Specifically, in these assays, a positively charged substrate is phosphorylated with a radiolabeled phosphate group from an ATP if the kinase is not inhibited by an inhibitor peptide. The positively charged substrate then is attracted to a negatively charged filter membrane, quantified with a scintillation counter, and compared to a 100% activity control.
(§4) In addition to determining the IC50 of the compound, the specificity of MK2 inhibitory peptides was assessed by examining activities of all 266 human kinases available for testing in the Millipore kinase profiling service (Table 1).

MLCK (h) = assay type: biochemical, human
Protocol: as §2, §3, §4

CaMKI (h) = assay type: biochemical, human
Protocol: as §2, §3, §4

T1 sequence (P49841 whole entry): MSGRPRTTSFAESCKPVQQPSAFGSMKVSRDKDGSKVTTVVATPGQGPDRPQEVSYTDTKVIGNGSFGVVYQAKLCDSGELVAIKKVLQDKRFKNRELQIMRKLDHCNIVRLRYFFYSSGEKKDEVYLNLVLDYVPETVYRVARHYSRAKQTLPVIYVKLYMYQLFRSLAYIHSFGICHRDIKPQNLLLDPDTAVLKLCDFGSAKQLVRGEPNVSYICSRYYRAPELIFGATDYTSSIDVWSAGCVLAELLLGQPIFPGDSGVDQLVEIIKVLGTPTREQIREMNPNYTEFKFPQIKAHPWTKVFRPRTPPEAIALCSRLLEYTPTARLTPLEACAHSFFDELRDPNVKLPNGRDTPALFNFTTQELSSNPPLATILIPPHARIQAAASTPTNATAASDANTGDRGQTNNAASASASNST

Row | Sequence | % activity (GSK3β (h)) [%] | % activity (TAO1 (h)) [%] | % activity (Mer (h)) [%] | % activity (EGFR (h)) [%] | % activity (cKit(V654A) (h)) [%] | % activity (MSK2 (h)) [%] | % activity (CaMKIIβ (h)) [%] | % activity (SGK (h)) [%] | % activity (MLCK (h)) [%] | % activity (CaMKI (h)) [%]
1 | FAKLAARLYRKALARQLGVAA [MMI-0300] | 205 | 82 | 52 | 21 | 134 | 56 | 2 | 48 | 2 | 1
2 | HRRIKAWLKKIKALARQLGVAA (Mammalian) [MMI-0500] | 238 | 24 | 17 | −1 | 223 | 14 | 3 | 2 | 0 | −1
3 | YARAAARQARAKALNRQLGVA (Mammalian) [MMI-0200] | 132 | – | 90 | 83 | – | 88 | 53 | 115 | 103 | 21
4 | KAFAKLAARLYRKALARQLGVAA [MMI-0400] | 202 | 73 | 50 | 16 | 150 | 52 | 11 | 54 | 1 | 0
